Biological target: OsASI1-BAH (residues 19 to 183) (rice)
Experiment: ITC

Substance: OsSUVH6 N-terminal peptide (OsSUVH6N, residues 287 to 304)
- Kd: 184 nM

From paper PMC9910501
